According to paper PMC7423924, “A fluorogenic cyclic peptide for imaging and quantification of drug-induced apoptosis” (Nature Communications, 2020):
Values joined by “and” are separate entries in the source; they are usually repeats but may differ in a detail not shown here. Identical values can stand only once.

Test system: human monocyte-derived macrophages (MDMs)
Experiment: Phagocytosis of pHrodo-labeled apoptotic neutrophils by MDMs
Format: cell-based
Conditions: protein S 25 nM, AF647-Annexin V 25 nM
Procedure: Neutrophils were cultured in the absence (black) or presence of Apo-15 (gray: 100 nM, white: 300 nM). Data presented as mean values ± SEM (n = 3). b Representative histograms of glucocorticoid-treated human MDMs after phagocytosis of pHrodo^TM-labeled neutrophils in the presence of different concentrations of Apo-15. Cells were analyzed using a 5L LSR cytometer with MDM identified based on their distinctive forward and side scatter properties (n = 4). Gating strategy in Supplementary Fig. 15A. c Flow cytometric quantification of phagocytosis of pHrodo^TM-labeled neutrophils by human MDMs. Human MDMs and neutrophils were co-cultured in the absence or presence of protein S (25 nM) and Apo-15 (60 or 600 nM) or AF647-Annexin V (25 nM). Data presented as mean values ± SEM (n ≥ 3). d Representative brightfield and fluorescence microscope images (from four independent experiments) of Apo-15-treated human neutrophils (green) in co-culture with human MDMs. […]
One potential limitation to the use of annexins for imaging apoptosis is their interference with the clearance of apoptotic cells by phagocytes. […] We examined whether Apo-15 affected the engulfment of apoptotic cells using a well-established in vitro assay to quantify the extent of phagocytosis in human monocyte-derived macrophages (MDMs) in the presence of the PS-opsonin protein S (Fig. 4b)[32],[33]. […]

B1: Annexin V: fluorescently-labeled (AF647) annexin V, PS-binding protein (protein, UniProt P08758 2-320, looked up)
Annexin A5: AQVLRGTVTDFPGFDERADAETLRKAMKGLGTDEESILTLLTSRSNAQRQEISAAFKTLFGRDLLDDLKSELTGKFEKLIVALMKPSRLYDAYELKHALKGAGTNEKVLTEIIASRTPEELRAIKQVYEEEYGSSLEDDVVGDTSGYYQRMLVVLLQANRDPDAGIDEAQVEQDAQALFQAGELKWGTDEEKFITIFGTRSVSHLRKVFDKYMTISGFQIEETIDRETSGNLEQLLLAVVKSIRSIPAYLAETLYYAMKGAGTDDHTLIRVMVSRSEIDLFNIRKEFRKNFATSLYSMIKGDTSGDYKKALLLLCGEDD
modifications: AF647 label
Phagocytosis assay (%) (40 min, 37 °C, single replicates): 30.0% and 35.0% and 33.0% | Reduction of the phagocytic capacity of MDMs (Apo-15 60 or 600 nM): ~ 50%
